Data reported in patent US20020082396A1 (published 2002).
Residue numbers refer to the chain shown, from its start.

B1: antibody of the chimeric WS-4 L chain and version a of the reshaped human WS-4 H chain (chL/RVHa) (antibody, V domains shown)
VH: EVQLLESGGGLVQPGGSLRLSCAASGFTFSDYYLSWVRQAQGKGLELVGLIRNKANGYTREYSASVKGRLTISREDSKNTLYLQMSSLKTEDLAVYYCARENYRYDVELAYWGQGTLVTVSS
VL: DIQMTQSPASLSASVGETVTITCRASEIIYSYLAWYQQKQGKSPQLLVYNAKTLADGVSSRFSGSGSGTQFSLRISSLQPEDFGSYYCQHHFGFPRTFGGGTKLELK
notes: Human C kappa and human C gamma 1 regions (HEF-chWS4L-gk with HEF-RVHa-gg1), tested as COS cell culture medium
B2: reshaped human WS-4 antibody RVLa/RVHc (antibody, V domains shown)
VH: B1 VH with Q41P
VL: DIQMTQSPSSLSASVGDRVTITCRASEIIYSYLAWYQQKPGKAPKLLIYNAKTLADGVPSRFSGSGSGTDFTFTISSLQPEDIATYYCQHHFGFPRTFGQGTKVEIK
notes: Human C kappa and human C gamma 1 regions, tested as COS cell culture medium; also called antibody having H chain version c

Target: T1, recombinant human IL-8 (Amersham) (human, UniProt P10145 28-99, limits assumed)
T1 construct: In the ELISA it is captured by goat anti-human IL-8 polyclonal antibody on the plate; In the neutrophil assay it is 125I-labelled and non-labelled IL-8 at 4 ng/ml each; also called human interleukin-8
T1 sequence (looked up): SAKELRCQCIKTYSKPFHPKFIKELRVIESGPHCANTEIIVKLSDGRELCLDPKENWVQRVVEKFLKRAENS
Experiment: ELISA: human IL-8 captured by goat anti-human IL-8 polyclonal antibody, COS culture medium serially diluted, AP-labelled anti-human IgG

| Binder | binding result |
| --- | --- |
| B1 | no binding |
| B2 | no binding |
